According to the supplement of paper PMC11780869:

System: Bacillus subtilis
Test: cleaved RNA product abundance (RNA/gDNA barcode ratio) relative to median wild-type variant (ratio to wild type); higher = more accumulation of the downstream cleavage product
In short: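 The B. subtilis chromosome carried reporter mRNAs, truncated aprE or tetM, containing barcoded RNase Y cleavage-site windows mutagenized using oligos with a 9% error rate. After growth in LB at 37°C from OD600 0.0003 to 0.3, cleaved RNA was gel-selected, reverse transcribed and barcode-sequenced next to genomic DNA barcodes, with UMI collapsing. Each construct's RNA:gDNA barcode ratio was scaled to the median construct with the unmutated site. That scaled ratio is reported as cleaved product abundance.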

[1] = experiment (reporter, strain, medium): exp 8a: truncated aprE reporter, strain BJT201 with 2% xylose (RNase J1 expressed), cleavage site: glnRA (positions -5 to +31 mutated)
[2] = experiment (reporter, strain, medium): exp 4a: truncated aprE reporter, strain BJT201 with 2% xylose (RNase J1 expressed), cleavage site: cggR-gapA (positions -7 to +36 mutated)
[3] = experiment (reporter, strain, medium): exp 2b: truncated aprE reporter, strain BJT200, cleavage site: cggR-gapA (positions -7 to +36 mutated)
[4] = experiment (reporter, strain, medium): exp 6: tetM reporter, strain 168, cleavage site: cggR-gapA (positions -7 to +36 mutated)

Sequence	cleaved RNA product abundance [1]	cleaved RNA product abundance [2]	cleaved RNA product abundance [3]	other results
CGACATGTCCCGCTTCTTTCATTAATCCGTTAGCAACTGTTTGGCTATATACATTTACCTTTTAAGAGGAGGAAT	0.493	–	–	–
ACAGACGAAGGAGCCGCAATGAAGTTATTAAGGGATGTATAATCCCTCAATATAAATATCTCTCACTTATTTAAA	–	1.53	–	–
ACAGACGAAGGAGCCGCAAAGATGTTATTAAGGGATGAATAATCCCTCAATCTAAATATCTCTCACTTATTTAAA	–	0.0528	–	–
CGACATGTCCCGCTTCTTTCATTATTCCGATAGCAACTATTTTGCTATATACATTTACCTTTTAAGAGGAGGAAT	1.85	–	–	–
ACAGACGAAGGAGCCGCAAAGAAGTTATTAAGGGATTAATAATCCCTGAATATAAATATCTCTCACTTATTTAAA	–	0.768	–	–
ACAGACGAAGGAGCCGCAAAGAAGTTATTAAGGCATGAATTATCCCTCAATATAAATATCTCTCACTTATTTAAA	–	0.132	0.0689	–
ACAGACGAAGGAGCCGCAAAGAAGTTATTAAGGGATGAATAATCCCTCACTATAAATATCTCTCACTTATTTAAA	–	0.277	0.215	cleaved RNA product abundance [4]: 0.208
ACAGACGAAGGAGCCGCAAAGAAGTTATTCAGGGATGAATAATCCCTCAATATAAATAACTCTCACTTATTTAAA	–	–	0.615	–
CGACATGTCCCGCTTCTTTCATTAATCCGTTAGCAACTGTTTTGCTATATACATTTACCGTTTAAGAGGAGGAAT	0.948	–	–	–
ACAGACGAAGGAGCCGCAAAGAAGTTATTAAGGGATGAATAATTCCTCCATATAAATATCTCTCACTTATTTAAA	–	0.119	0.102	–
ACAGACGAAGGAGCCGCAAAGAACTTATTAAGGGATGAATAATCCCTCGATATAAATATCTCTCACTTATTTAAA	–	0.269	–	–
CGACATGTCCCGCTTCTTTCATTACTCCGTTATCAACTGTTTTGCTATATACATTTACCTTTTAAGAGGAGGAAT	0.227	–	–	–
CGACATGTCCCGCTTCTTTCATTAATCCGTTAGCAACTGTTTTGCTATATGCATTTAACTTTTAAGAGGAGGAAT	0.452	–	–	–
CGACATGTCCCGCTTCTTTCATTATTCCTTAAACAACTGTTTTGTAATATACATTATACCTTTAAGAGGAGGAAT	0.242	–	–	–
CGACATGTCCCGCTTCTTTCATTAATCCGTTAGCAACTGTTTTGCTCTATACATATACCTTTTAAGAGGAGGAAT	0.176	–	–	–
CGACATGTCCCGCTTCTTTCATTAATCCGTTAGCAACCGTTTTGCTAAATACATTTACCTTTTAAGAGGAGGAAT	0.432	–	–	–
CGACATGTCCCGCTTCTTTCATTAATCCGTTAGCAAGCGTTTTGCTATATACATTTACCTTTTAAGAGGAGGAAT	0.684	–	–	–
ACAGACGAAGGAGCCGCAAAGAAGTTATTAAGGGATGAATAATCCTTCAATATAATTATCTCTCACTTATTTAAA	–	0.387	0.219	–
ACAGACGAAGGAGCCGCAAAGAAGTTATTAGGGGATGAATAATCCCTCAAAATAAATATCTCTCACTTATTTAAA	–	0.476	0.351	–
ACAGACGAAGGAGCCGCAAAGAAGTTATTAAGGGATGATTAATCCCTGAATATAAATATCTCTCACTTATTTAAA	–	0.458	–	–
ACAGACGAAGGAGCCGCAAAGAAGTTACTAAGGGATGAACAATCCCTCAATATAAATATCTCTCACTTATTTAAA	–	0.266	–	–
ACAGACGAAGGAGCCGCAAAGAAGTTATTAAGGGATCAATAATCCCTCAATATAAATTTCTCTCACTTATTTAAA	–	0.645	–	–
CGACATGTCCCGCTTCTTTCATTAAACCGTTAGCAACTGTTTTGCTATATCCATTTACCTTTTAAGAGGAGGAAT	0.0869	–	–	–
ACAGACGAAGGAGCCGCAAAGCAGTTATTAAGGAATGAATAATCCCTCAATATAAATATCTCTCACTTATTTAAA	–	0.0974	–	–
CGACATGTCCCGCTTCTTTCATTACTCCGTTAGCAACTGTTTTGCTATACACATTTACCTTTTAAGAGGAGGAAT	0.423	–	–	–
CGACATGTCCCGCTTCTTTCATTAATCCGTTAACAACTGTTTTGCTATATACATTTACATTTTAAGAGGAGGAAT	0.202	–	–	–
ACAGACGAAGGAGCCGCAAAGAAGTAATTAAGGGATGAATAATCGCTCAATATAAATATCTCTCACTTATTTAAA	–	0.0828	–	–

Sequence	cleaved RNA product abundance [1]	cleaved RNA product abundance [2]	cleaved RNA product abundance [3]	other results
ACAGACGAAGGAGCCGCAAAGAAATTCTTAAGGGATGAATAATCCCTCAATATAAATATCTCTCACTTATTTAAA	–	0.199	0.186	–
ACAGACGAAGGAGCCGCAAAGAAGTTATTAATGGATGAATCATCCCTCAATATAAATATCTCTCACTTATTTAAA	–	0.189	0.122	–
ACAGACGAAGGAGCCGCAAAGAAGTTATTAAGGCGTGAATAATCCCTCAATATAAATATCTCTCACTTATTTAAA	–	0.116	0.097	–
ACAGACGAAGGAGCCGCTAAGAAGTTATTAAGGGATGAATAATCTCTCAATATAAATATCTCTCACTTATTTAAA	–	1.12	–	–
ACAGACGAAGGAGCCGCAAAGGAGTTATTAAGTGATGAATAATCCCTCAATATAAATATCTCTCACTTATTTAAA	–	0.162	–	–
ACAGACGAAGGAGCCGCTAAGAAGTTATTAAGGGATGAATAATCCCTCAATATAAATATCTCTCACTTATTTAAA	–	0.985	1.04	cleaved RNA product abundance [4]: 1.03
ACAGACGAAGGAGCCGCAAAGAAGTTATTAAGGGATGAATATTCCCTCAATATAAATCTCTCTCACTTATTTAAA	–	0.471	–	–
CGACATGTCCCGCTTCTTTCATTAATCCGTTAGCAACTGTTTTCCTATATACATATACCTTTTAAGAGGAGGAAT	0.353	–	–	–
ACAGACGAAGGAGCCGCAAAGAAGTTATTAAGGGATGAACATTCCCTCAATATAAATATCTCTCACTTATTTAAA	–	0.633	–	–
CGACATGTCCCGCTTCTTTCATTAATCCGTTAGTAACTGTTTTGCTAAATACATTTACCTTTTAAGAGGAGGAAT	0.496	–	–	–
ACAGACGAAGGAGCCGCAAAAAAGTTATTAAGGGATGAATAATCCTTCAATATAAATATCTCTCACTTATTTAAA	–	0.678	0.395	–
ACAGACGAAGGAGCCGCAAAGAAGTTATTCAGGGATGAATAATCCCTCAATATAAATATCTCTCACTTATTTAAA	–	0.882	0.766	cleaved RNA product abundance [4]: 0.609
ACAGACGAAGGAGCCGCAAAGAAGTTATTAGGTGATGAATAATCCCTCAATATAAATATCTCTCACTTATTTAAA	–	0.331	–	–
CGACATGTCCCGCTTCTTTCATTAATCCGATAGCAACTGTTTTGCTATATACATTGACCTTTTAAGAGGAGGAAT	0.721	–	–	–
ACAGACGAAGGAGCCGCAAAGAAGTTATTAAGGGATGATTAATCCCTCAAAATAAATATCTCTCACTTATTTAAA	–	0.282	0.294	–
ACAGACGAAGGAGCCGCAACGAAGTTAATAAGGGATGAATAATCCCTCAATATAAATATCTCTCACTTATTTAAA	–	–	0.227	–
ACAGACGAAGGAGCCGCAAAGAAGTTATTAAGGGATGAATAATACCTCGATATAAATATCTCTCACTTATTTAAA	–	0.103	0.0828	–
CGACATGTCCCGCTTCTTTCATTAATCCGATAGCAACTGTTTTGCTATATACATTTACCTTTTAAGAGGAGGAAT	0.795	–	–	–
CGACATGTCCCGCTTCTTTCATTAATCCGTTAGCAACTGTTCTGCTATATATATTTACCTTTTAAGAGGAGGAAT	0.554	–	–	–
ACAGACGAAGGAGCCGCAAAGAAGTTATTAAGAGATGAAAAATACCTCAATATAAATATCTCTCACTTATTTAAA	–	0.146	–	–
ACAGACGAAGGAGCCGCAAAGAAGTTATTAAGGAGTGAATAATCCCTCAATATAAATATCTCTCACTTATTTAAA	–	0.171	–	–
ACAGACGAAGGAGCCGCAAAGAAGTTATTAAGGGATGAATAATCCTTCAATATATATATCTCTCACTTATTTAAA	–	0.604	–	–
ACAGACGAAGGAGCCGCAAAGAAGTTATTAAGGGATGAATATTCACTCAATATAAATATCTCTCACTTATTTAAA	–	0.18	–	–
CGACATGTCCCGCTTCTTTCATTAAACTGTTAGCAACTGTTTTGCTATATACATTTACCTTTTAAGAGGAGGAAT	1.02	–	–	–
CGACATGTCCCGCTTCTTTCATTAATCCGTTAGCAACTGTATTGCTATATACATTTAACTTTTAAGAGGAGGAAT	1.13	–	–	–
ACAGACGAAGGAGCCGCAAAGAAGTTATTAAGGGATAAATAATCCCTCCATATAAATATCTCTCACTTATTTAAA	–	0.234	0.26	–
